Holding throughout (test): biochemical
What all share (assay type): biochemical

Assay [1] has as its target 266 human kinases (Homo sapiens, UniProt Q13177). The conditions noted are these: PAK2(h); 100 μM. An outline of the steps: (§1)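 Radiometric filter-binding format: a positively charged substrate takes up radiolabelled phosphate from ATP unless the kinase is inhibited, then is captured on a negatively charged filter membrane. Counts from scintillation are expressed relative to a 100% activity control.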

In assay [2] the target is 266 human kinases (Homo sapiens, UniProt P23443). The note with it: p70S6K(h); 100 μM. In outline:
as §1

Assay [3] concerns the target 266 human kinases (Homo sapiens, UniProt P41240). The conditions noted are these: CSK(h); 100 μM. An outline of the steps:
as §1

Assay [4] has as its target 266 human kinases (Homo sapiens, UniProt P08581, D1228N). The note with it: Met(D1246N)(h); 100 μM. An outline of the steps:
as §1

Assay [5] addresses T1, 266 human kinases (Homo sapiens, UniProt Q12851).
T1 sequence (Q12851 1-820): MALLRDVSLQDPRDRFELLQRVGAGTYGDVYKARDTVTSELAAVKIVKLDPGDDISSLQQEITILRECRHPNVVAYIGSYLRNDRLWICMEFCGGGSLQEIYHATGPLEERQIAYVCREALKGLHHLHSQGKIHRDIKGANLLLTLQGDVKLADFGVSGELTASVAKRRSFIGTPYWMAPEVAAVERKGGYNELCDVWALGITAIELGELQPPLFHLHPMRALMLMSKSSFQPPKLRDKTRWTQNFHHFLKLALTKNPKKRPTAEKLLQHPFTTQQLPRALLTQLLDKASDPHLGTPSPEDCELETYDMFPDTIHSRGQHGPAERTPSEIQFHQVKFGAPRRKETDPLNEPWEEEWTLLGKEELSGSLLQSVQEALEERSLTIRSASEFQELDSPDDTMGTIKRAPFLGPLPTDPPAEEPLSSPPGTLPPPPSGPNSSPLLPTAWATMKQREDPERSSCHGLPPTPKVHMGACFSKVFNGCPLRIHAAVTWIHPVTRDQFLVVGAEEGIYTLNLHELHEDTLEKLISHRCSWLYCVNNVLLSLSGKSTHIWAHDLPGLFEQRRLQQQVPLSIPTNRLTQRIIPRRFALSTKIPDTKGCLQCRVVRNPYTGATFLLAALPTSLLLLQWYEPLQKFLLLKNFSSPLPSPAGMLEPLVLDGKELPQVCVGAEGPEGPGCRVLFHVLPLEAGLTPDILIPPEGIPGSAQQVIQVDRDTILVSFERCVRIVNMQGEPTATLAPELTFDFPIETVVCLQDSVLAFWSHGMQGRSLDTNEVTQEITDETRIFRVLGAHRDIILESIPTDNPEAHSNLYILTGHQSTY
The note with it: GCK(h); 100 μM. In outline: as §1

Assay [6] deals with 266 human kinases (Homo sapiens, UniProt P35968). The conditions noted are these: KDR(h); 100 μM. An outline of the steps:
as §1

Assay [7] has as its target 266 human kinases (Homo sapiens, UniProt P08581). The conditions noted are these: Met(h); 100 μM. In outline:
as §1

Assay [8] addresses T2, 266 human kinases (Homo sapiens, UniProt P29323).
T2 sequence (P29323 19-1055): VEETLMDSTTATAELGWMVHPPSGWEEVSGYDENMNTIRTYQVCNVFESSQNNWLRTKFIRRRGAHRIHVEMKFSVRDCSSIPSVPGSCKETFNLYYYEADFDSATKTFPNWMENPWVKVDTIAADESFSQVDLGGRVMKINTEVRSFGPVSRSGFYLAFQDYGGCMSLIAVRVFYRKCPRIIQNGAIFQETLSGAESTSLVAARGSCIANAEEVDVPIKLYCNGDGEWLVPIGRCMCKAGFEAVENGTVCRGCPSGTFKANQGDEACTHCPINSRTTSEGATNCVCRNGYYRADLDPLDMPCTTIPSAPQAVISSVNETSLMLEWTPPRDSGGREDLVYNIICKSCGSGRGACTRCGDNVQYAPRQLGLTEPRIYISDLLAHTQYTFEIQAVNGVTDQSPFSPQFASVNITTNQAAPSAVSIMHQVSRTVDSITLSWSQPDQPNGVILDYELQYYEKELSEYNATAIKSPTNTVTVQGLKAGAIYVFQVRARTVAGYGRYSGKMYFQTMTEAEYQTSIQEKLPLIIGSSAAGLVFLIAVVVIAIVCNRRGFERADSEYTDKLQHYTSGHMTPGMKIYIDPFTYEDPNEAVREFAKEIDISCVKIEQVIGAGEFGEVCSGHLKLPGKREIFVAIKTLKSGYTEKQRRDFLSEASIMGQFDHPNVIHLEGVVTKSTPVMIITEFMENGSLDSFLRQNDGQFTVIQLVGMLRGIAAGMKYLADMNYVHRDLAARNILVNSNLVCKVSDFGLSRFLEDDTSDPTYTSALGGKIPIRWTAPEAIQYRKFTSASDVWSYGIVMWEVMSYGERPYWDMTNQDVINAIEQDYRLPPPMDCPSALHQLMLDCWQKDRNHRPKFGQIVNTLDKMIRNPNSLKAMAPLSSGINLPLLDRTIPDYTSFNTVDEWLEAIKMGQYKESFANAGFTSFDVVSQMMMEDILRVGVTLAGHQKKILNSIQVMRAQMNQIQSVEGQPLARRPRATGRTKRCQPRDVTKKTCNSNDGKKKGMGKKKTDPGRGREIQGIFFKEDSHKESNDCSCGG
The note with it: EphB2(h); 100 μM. An outline of the steps:
as §1

The target of assay [9] is 266 human kinases (Homo sapiens, UniProt P10721). The conditions noted are these: cKit(h); 100 μM. An outline of the steps:
as §1

Sequence of 266 human kinases (Homo sapiens, UniProt Q13177) (Q13177 whole entry): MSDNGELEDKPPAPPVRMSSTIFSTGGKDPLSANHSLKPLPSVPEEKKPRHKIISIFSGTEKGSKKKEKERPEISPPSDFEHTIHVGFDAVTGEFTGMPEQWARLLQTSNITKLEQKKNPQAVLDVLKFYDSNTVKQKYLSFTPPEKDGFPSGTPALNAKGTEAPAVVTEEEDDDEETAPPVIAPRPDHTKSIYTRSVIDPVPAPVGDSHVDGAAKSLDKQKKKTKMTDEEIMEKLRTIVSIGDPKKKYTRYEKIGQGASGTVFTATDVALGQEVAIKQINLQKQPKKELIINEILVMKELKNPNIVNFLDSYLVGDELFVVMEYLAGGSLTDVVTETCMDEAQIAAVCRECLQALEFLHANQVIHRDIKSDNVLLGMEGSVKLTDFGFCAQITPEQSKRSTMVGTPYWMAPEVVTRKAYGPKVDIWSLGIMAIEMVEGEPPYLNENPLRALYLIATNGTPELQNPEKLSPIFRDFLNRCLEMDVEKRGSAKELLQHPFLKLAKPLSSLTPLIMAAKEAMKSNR
Sequence of 266 human kinases (Homo sapiens, UniProt P35968) (P35968 20-1356): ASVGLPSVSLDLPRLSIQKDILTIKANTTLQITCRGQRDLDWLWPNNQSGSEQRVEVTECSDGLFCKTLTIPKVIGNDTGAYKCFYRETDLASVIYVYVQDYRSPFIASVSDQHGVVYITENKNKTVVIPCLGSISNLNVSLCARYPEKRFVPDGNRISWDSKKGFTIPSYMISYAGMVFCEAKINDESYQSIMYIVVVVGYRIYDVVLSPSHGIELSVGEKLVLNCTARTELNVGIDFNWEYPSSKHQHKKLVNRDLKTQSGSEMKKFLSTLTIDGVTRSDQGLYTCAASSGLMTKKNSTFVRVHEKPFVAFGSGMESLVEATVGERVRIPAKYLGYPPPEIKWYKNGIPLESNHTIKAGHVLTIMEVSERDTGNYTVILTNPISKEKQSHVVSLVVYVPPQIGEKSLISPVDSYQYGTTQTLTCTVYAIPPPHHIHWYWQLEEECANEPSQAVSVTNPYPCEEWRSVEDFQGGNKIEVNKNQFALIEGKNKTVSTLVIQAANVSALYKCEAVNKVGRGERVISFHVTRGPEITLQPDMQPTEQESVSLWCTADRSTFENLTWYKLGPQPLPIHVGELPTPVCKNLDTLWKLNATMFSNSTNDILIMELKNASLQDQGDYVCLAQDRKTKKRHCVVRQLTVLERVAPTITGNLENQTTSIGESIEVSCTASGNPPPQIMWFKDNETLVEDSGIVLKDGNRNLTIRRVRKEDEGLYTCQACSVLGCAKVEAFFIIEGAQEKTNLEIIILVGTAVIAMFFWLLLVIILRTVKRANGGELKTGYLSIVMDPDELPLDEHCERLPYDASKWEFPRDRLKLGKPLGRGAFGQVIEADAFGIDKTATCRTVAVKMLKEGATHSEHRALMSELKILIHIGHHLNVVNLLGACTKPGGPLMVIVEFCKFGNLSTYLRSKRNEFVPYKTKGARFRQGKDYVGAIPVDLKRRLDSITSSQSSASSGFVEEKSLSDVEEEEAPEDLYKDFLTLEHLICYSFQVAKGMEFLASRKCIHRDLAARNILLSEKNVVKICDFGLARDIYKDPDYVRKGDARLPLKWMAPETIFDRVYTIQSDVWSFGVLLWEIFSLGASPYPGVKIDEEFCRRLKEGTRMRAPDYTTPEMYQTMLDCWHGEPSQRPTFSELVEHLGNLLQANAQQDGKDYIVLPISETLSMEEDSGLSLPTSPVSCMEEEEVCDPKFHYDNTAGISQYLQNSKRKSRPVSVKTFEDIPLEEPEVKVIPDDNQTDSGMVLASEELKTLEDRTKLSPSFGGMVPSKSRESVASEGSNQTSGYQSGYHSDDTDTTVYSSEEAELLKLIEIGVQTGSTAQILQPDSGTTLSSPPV
Sequence of 266 human kinases (Homo sapiens, UniProt P41240) (P41240 whole entry): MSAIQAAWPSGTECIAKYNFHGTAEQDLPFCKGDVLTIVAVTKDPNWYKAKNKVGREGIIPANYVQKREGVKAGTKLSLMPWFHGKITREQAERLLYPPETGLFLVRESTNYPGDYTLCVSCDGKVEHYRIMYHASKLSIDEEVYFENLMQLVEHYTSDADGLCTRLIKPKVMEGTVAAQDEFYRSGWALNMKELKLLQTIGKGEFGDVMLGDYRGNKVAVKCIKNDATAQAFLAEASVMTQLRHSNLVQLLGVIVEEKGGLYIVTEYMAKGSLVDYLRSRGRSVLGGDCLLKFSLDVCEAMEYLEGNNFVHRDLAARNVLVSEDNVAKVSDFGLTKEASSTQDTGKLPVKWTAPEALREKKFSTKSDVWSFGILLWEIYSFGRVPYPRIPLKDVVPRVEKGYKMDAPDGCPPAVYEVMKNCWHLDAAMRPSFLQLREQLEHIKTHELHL
Sequence of 266 human kinases (Homo sapiens, UniProt P23443) (P23443 whole entry): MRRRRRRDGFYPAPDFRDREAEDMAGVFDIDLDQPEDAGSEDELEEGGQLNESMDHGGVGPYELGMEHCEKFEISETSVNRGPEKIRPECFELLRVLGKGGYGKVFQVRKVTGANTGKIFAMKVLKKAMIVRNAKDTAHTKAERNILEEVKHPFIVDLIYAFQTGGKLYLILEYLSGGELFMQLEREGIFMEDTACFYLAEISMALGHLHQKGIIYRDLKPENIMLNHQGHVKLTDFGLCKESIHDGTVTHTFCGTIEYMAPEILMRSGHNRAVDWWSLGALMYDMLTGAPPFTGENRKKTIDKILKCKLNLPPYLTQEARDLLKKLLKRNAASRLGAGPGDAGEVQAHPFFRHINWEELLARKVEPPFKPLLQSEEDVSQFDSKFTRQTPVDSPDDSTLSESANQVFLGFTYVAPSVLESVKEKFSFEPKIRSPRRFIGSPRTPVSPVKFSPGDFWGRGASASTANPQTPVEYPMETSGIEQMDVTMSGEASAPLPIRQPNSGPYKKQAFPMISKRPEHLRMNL

With “HRRIKAWLKKIKALARQLGVAA (mammal) [MMI-0500]”, the “% activity” value in the assay with 266 human kinases [1] worked out at 44%; with 266 human kinases [2], 3%; with 266 human kinases [3], 2%; with 266 human kinases [4], 90%; with 266 human kinases [5], 30%; with 266 human kinases [6] it was 15%. Also, the figures for the “% activity” value with 266 human kinases [7], with 266 human kinases [8] and with 266 human kinases [9] were 27%, 70% and 45%, respectively.
As to “YARAAARQARAKALNRQLGVA (mammal) [MMI-0200]”, the “% activity” value in the assay with 266 human kinases [1] stood at 69%; with 266 human kinases [2], 84%; in the assay with 266 human kinases [3] it was 33%; with 266 human kinases [4], 149%; with 266 human kinases [5], 99%; in the assay with 266 human kinases [6], 110%. Besides, the “% activity” value with 266 human kinases [7] came to 71%; in the assay with 266 human kinases [8], 128%; with 266 human kinases [9], 110%.
